Experimental data: US20260124245A1 (UNIVERSITY OF NORTH CAROLINA AT CHAPEL HILL, published 2026)
Ends that are not written are not given here.

Target: T1, Base Leucine Zipper (B-LZ)
T1 construct: In FRET it carried an AF555 label; In the cell and EV assays it was conjugated to the surface through Sulfo-SMCC; also called SynZip2
Assay: titration ELISA on coated B-LZ, anti-FLAG-HRP detection
Experimental: Enzyme-linked immunosorbent assay (ELISA). Nunc MaxiSorp 96-well plates were coated with Base-Leucine Zipper (B-LZ) at 2.5 μg/mL and incubated overnight at 4° C. The plate was thoroughly washed with 0.1% TBS-Tween (TBST). The wells were washed with 0.1% PBST and then blocked with BSA blocking buffer for 1 h at room temperature before incubation with complementary leucine zipper (C-LZ) concentrations ranging from 1 μM to […] at room temperature for 2 hours before washing. Washes were followed by the addition of 100 μL of anti-FLAG horseradish peroxidase (HRP)-linked monoclonal antibody (1:10,000 mAb, #A8592, Sigma Aldrich, St. Louis, MO) for 1 h at room temperature with rocking. The wells were washed with 0.1% PBST followed by the addition of TMB-ELISA substrate. After a 10 min incubation, 2 M H₂SO₄ was added to stop the reaction. The absorbance was measured at 450 nm and 570 nm with a SpectraMax M5 plate reader (Molecular Devices, Sunnyvale, CA).
The proteins were then expressed for in vitro testing. Using titration ELISA, the binding affinity of each sequence was tested for its affinity to the base leucine zipper (B-LZ). […] This decision was based on its high binding affinity and high expression levels in E. coli. […]

B1: NIS1 (high-affinity complementary leucine zipper, HiA C-LZ) (designed binder)
chain: NLVAQLENEVASLENENETLKNKNLQKKNLIAYLEQEIANLRKKIEG
modifications: also: purification and detection tags and conjugation cysteine, position not given here
notes: NIS1 is a mutant of C-LZ 10 nM; not shown: purification and detection tags and conjugation cysteine (Ni-NTA purified, anti-FLAG detected, thiol conjugated); letter
  fold improvement in B-LZ binding compared with C-LZ 10 nM: 5 fold
